From patent US20050288489A1 (published 2005)
One block for each molecule: values may come before it. fluorescein = fluorescein label

How the values were obtained:
[1] = biological target: fluorescein-labeled AID peptide, fluorescein-…-COOH; assay: fluorescence polarization, β protein titrated onto 0.5 nM fluorescein-labeled AID peptide
[2] = biological target: fluorescein-labeled AID peptide, fluorescein-…-COOH; assay: fluorescence polarization, equilibrium isotherm titration
[3] = biological target: fluorescein-labeled AID peptide, fluorescein-…-COOH; assay: fluorescence polarization
[4] = biological target: CaV1.2 (α1C) subunit expressed in Xenopus laevis oocytes by mRNA injection; assay: cell-based or functional assay
[5] = biological target: T1, full-length VDCC β2a mutant M246 changed to alanine (rabbit, UniProt P54288-2 1-606); assay: fluorescence polarization
T1 construct: mature

[6] = biological target: T2, full-length VDCC β2a mutant L392 changed to alanine (rabbit, UniProt P54288-2 1-606); assay: fluorescence polarization
T2 construct: mature

Kd [1]: 6.6 nM
Kd [2]: 6 to 15 nM
Molecule: VDCC β2a linkerless core (domain I plus domain II, removable linker core after TEV digestion) (from UniProt P54288 51-172; P54288 230-449)

Kd [3]: 26 nM
Kd [1]: 16.1 nM
Kd [2]: 6 to 15 nM
Molecule: full-length VDCC β2a subunit (rabbit, recombinant, histidine tag removed by TEV protease) (from UniProt P54288 44-632)

Molecule: full-length rat VDCC β3 subunit protein (recombinant, tag removed) (from UniProt P54287 1-484)
Steady-state activation, V1/2 (mV) [4]: 10 mV
Steady-state activation, k (mV) [4]: 10.6 mV

Molecule: full-length β2a protein as injected into oocytes (P122R) (from UniProt P54288 1-606)
Current amplitude (A), I at 20 mV [4]: -0.71
Current amplitude (A), I at 30 mV [4]: -0.49
Steady-state activation, V1/2 (mV) [4]: 3.68 mV
Steady-state activation, k (mV) [4]: 8.48 mV

Molecule: β2a core protein as injected into oocytes (P122R) (from UniProt P54288 25-422)
Current amplitude (A), I at 20 mV [4]: -0.87
Current amplitude (A), I at 30 mV [4]: -0.7
Steady-state activation, V1/2 (mV) [4]: 6.84 mV
Steady-state activation, k (mV) [4]: 8.43 mV

Molecule: β2a domain I + domain II prepared by proteolysis of full length protein and subsequent purification (injected) (from UniProt P54288 25-146; P54288 204-423)
Current amplitude (A), I at 20 mV [4]: -0.44
Current amplitude (A), I at 30 mV [4]: -0.34
Steady-state activation, V1/2 (mV) [4]: 3.24 mV
Steady-state activation, k (mV) [4]: 9.49 mV

Molecule: β2a domain I protein as injected into oocytes (P122R) (from UniProt P54288 25-146)
Current amplitude (A), I at 20 mV [4]: -0.16
Current amplitude (A), I at 30 mV [4]: -0.18
Steady-state activation, V1/2 (mV) [4]: 24 mV
Steady-state activation, k (mV) [4]: 12.2 mV

Molecule: β3 core protein (from UniProt P54287 21-370)
Current amplitude (A), I at 20 mV [4]: -0.45
Current amplitude (A), I at 30 mV [4]: -0.41
Steady-state activation, V1/2 (mV) [4]: 10.7 mV
Steady-state activation, k (mV) [4]: 10.1 mV

Molecule: β3 subunit expressed in oocytes by mRNA injection
Current amplitude (A), I at 20 mV [4]: -0.56
Current amplitude (A), I at 30 mV [4]: -0.48
Steady-state activation, V1/2 (mV) [4]: 10.7 mV
Steady-state activation, k (mV) [4]: 9.08 mV

Kd [5]: 1700 nM
Kd [6]: 340 nM
B1: fluorescein-labeled AID peptide, fluorescein-GGQQLEEDLRGYNSWITQGE-COOH (peptide)
peptide: fluorescein-GGQQLEEDLRGYNSWITQGE-OH
notes: also called labeled peptide; WT
